In the supplement of paper PMC11246515:
± gives the standard deviation of the averaged measurements.

Experiment: total protein half-life in vivo (active degradation + dilution); higher = more stable protein
[1] = E. coli NCM3722 delta-clpP delta-lon delta-hslV, growth: N-lim chemostat, doubling time 6 h
[2] = E. coli NCM3722 delta-hslV, growth: N-lim chemostat, doubling time 6 h
[3] = E. coli NCM3722 delta-lon, growth: N-lim chemostat, doubling time 6 h
[4] = E. coli NCM3722 delta-smpB, growth: N-lim chemostat, doubling time 6 h
[5] = wild type E. coli NCM3722, growth: C-lim chemostat, doubling time 3 h
[6] = wild type E. coli NCM3722, growth: C-lim chemostat, doubling time 6 h
[7] = wild type E. coli NCM3722, growth: C-lim chemostat, doubling time 12 h
[8] = wild type E. coli NCM3722, growth: N-lim chemostat, doubling time 6 h
[9] = wild type E. coli NCM3722, growth: N-lim chemostat, doubling time 12 h
[10] = wild type E. coli NCM3722, growth: P-lim chemostat, doubling time 6 h
[11] = wild type E. coli NCM3722, growth: P-lim chemostat, doubling time 12 h
[12] = E. coli NCM3722 delta-clpP, growth: N-lim chemostat, doubling time 6 h

Sequence	total protein half-life in vivo [1]	total protein half-life in vivo [2]	total protein half-life in vivo [3]	total protein half-life in vivo [4]	total protein half-life in vivo [5]	total protein half-life in vivo [6]	total protein half-life in vivo [7]	total protein half-life in vivo [8]	total protein half-life in vivo [9]	total protein half-life in vivo [10]	total protein half-life in vivo [11]	total protein half-life in vivo [12]
MKFKTNKLSLNLVLASSLLAASIPAFAVTGDTDQPIHIESDQQSLDMQGNVVTFTGNVIVTQGTIKINADKVVVTRPGGEQGKEVIDGYGKPATFYQMQDNGKPVEGHASQMHYELAKDFVVLTGNAYLQQVDSNIKGDKITYLVKEQKMQAFSDKGKRVTTVLVPSQLQDKNNKGQTPAQKKGN [P0ADV1]	5.44 ± 0.34 h	6.38 ± 0.74 h	6.48 ± 1.1 h	6.18 ± 0.62 h	3.06 ± 0.23 h	5.6321 ± 0.0032 h	10.5 ± 0.36 h	5.73 ± 0.082 h	9.99 ± 1.6 h	5.79 ± 0.07 h	11.8 ± 0.99 h	
MKITVLGCGALGQLWLTALCKQGHEVQGWLRVPQPYCSVNLVETDGSIFNESLTANDPDFLATSDLLLVTLKAWQVSDAVKSLASTLPVTTPILLIHNGMGTIEELQNIQQPLLMGTTTHAARRDGNVIIHVANGITHIGPARQQDGDYSYLADILQTVLPDVAWHNNIRAELWRKLAVNCVINPLTAIWNCPNGELRHHPQEIMQICEEVAAVIEREGHHTSAEDLRDYVMQVIDATAENISSMLQDIRALRHTEIDYINGFLLRRARAHGIAVPENTRLFEMVKRKESEYERIGTGLPRPW [P0A9J4]			3.4 h	3.22 ± 0.64 h			4.51 h	3.03 h		5.73 ± 0.2 h		
MVTINNARKILQRVDTLPLYLHAYAFHLNMRLERVLPADLLDIASENNLRGVKIHVLDGERFSLGNMDDKELSAFGDKARRLNLDIHIETSASDKASIDEAVAIALKTGASSVRFYPRYEGNLRDVLSIIANDIAYVRETYQDSGLTFTIEQHEDLKSHELVSLVKESEMESLSLLFDFANMINANEHPIDALKTMAPHITQVHIKDALIVKEPGGLGHKACISGQGDMPFKALLTHLICLGDDEPQVTAYGLEEEVDYYAPAFRFEDEDDNPWIPYRQMSETPLPENHLLDARLRKEKEDAINQINHVRNVLQQIKQEANHLLNH	4.45 ± 0.4 h	2.28 ± 0.57 h	3.21 h	1.68 ± 0.29 h	1.99 ± 0.052 h	2.9 h	4.36 ± 0.28 h	2.77 h	3.27 ± 0.036 h	2.88 h	4.74 ± 0.53 h	2.09 ± 0.14 h
MLNRYPLWKYVMLIVVIVIGLLYALPNLFGEDPAVQITGARGVAASEQTLIQVQKTLQEEKITAKSVALEEGAILARFDSTDTQLRAREALMGVMGDKYVVALNLAPATPRWLAAIHAEPMKLGLDLRGGVHFLMEVDMDTALGKLQEQNIDSLRSDLREKGIPYTTVRKENNYGLSITFRDAKARDEAIAYLSKRHPDLVISSQGSNQLRAVMSDARLSEAREYAVQQNINILRNRVNQLGVAEPVVQRQGADRIVVELPGIQDTARAKEILGATATLEFRLVNTNVDQAAAASGRVPGDSEVKQTREGQPVVLYKRVILTGDHITDSTSSQDEYNQPQVNISLDSAGGNIMSNFTKDNIGKPMATLFVEYKDSGKKDANGRAVLVKQEEVINIANIQSRLGNSFRITGINNPNEARQLSLLLRAGALIAPIQIVEERTIGPTLGMQNIEQGLEACLAGLLVSILFMIIFYKKFGLIATSALIANLILIVGIMSLLPGATLSMPGIAGIVLTLAVAVDANVLINERIKEELSNGRTVQQAIDEGYRGAFSSIFDANITTLIKVIILYAVGTGAIKGFAITTGIGVATSMFTAIVGTRAIVNLLYGGKRVKKLSI [P0AG90]	7.05 ± 0.45 h	6.5 ± 0.39 h	6.33 ± 0.36 h	5.92 ± 0.46 h	3.51 ± 0.36 h	5.86 ± 0.32 h	12.6 ± 2 h	6.19 ± 0.036 h	12.1 ± 0.19 h	6.36 ± 0.41 h	12.2 ± 0.8 h	6.58 ± 0.21 h
MSAQINNIRPEFDREIVDIVDYVMNYEISSKVAYDTAHYCLLDTLGCGLEALEYPACKKLLGPIVPGTVVPNGVRVPGTQFQLDPVQAAFNIGAMIRWLDFNDTWLAAEWGHPSDNLGGILATADWLSRNAVASGKAPLTMKQVLTAMIKAHEIQGCIALENSFNRVGLDHVLLVKVASTAVVAEMLGLTREEILNAVSLAWVDGQSLRTYRHAPNTGTRKSWAAGDATSRAVRLALMAKTGEMGYPSALTAPVWGFYDVSFKGESFRFQRPYGSYVMENVLFKISFPAEFHSQTAVEAAMTLYEQMQAAGKTAADIEKVTIRTHEACIRIIDKKGPLNNPADRDHCIQYMVAIPLLFGRLTAADYEDNVAQDKRIDALREKINCFEDPAFTADYHDPEKRAIANAITLEFTDGTRFEEVVVEYPIGHARRRQDGIPKLVDKFKINLARQFPTRQQQRILEVSLDRARLEQMPVNEYLDLYVI					3.04 ± 0.28 h	4.21 ± 0.07 h	8.53 ± 1 h	5.98 h				
MESGHRFDAQTLHSFIQAVFRQMGSEEQEAKLVADHLIAANLAGHDSHGIGMIPSYVRSWSQGHLQINHHAKTVKEAGAAVTLDGDRAFGQVAAHEAMALGIEKAHQHGIAAVALHNSHHIGRIGYWAEQCAAAGFVSIHFVSVVGIPMVAPFHGRDSRFGTNPFCVVFPRKDNFPLLLDYATSAIAFGKTRVAWHKGVPVPPGCLIDVNGVPTTNPAVMQESPLGSLLTFAEHKGYALAAMCEILGGALSGGKTTHQETLQTSPDAILNCMTTIIINPELFGAPDCNAQTEAFAEWVKASPHDDDKPILLPGEWEVNTRRERQKQGIPLDAGSWQAICDAARQIGMPEETLQAFCQQLAS	4.97 ± 0.25 h	4.28 ± 0.11 h		4.214 ± 0.024 h	3.14 ± 0.059 h	5.02 ± 0.63 h	8.45 ± 0.26 h	4.46 ± 0.42 h	7.26 ± 1.5 h	5.58 ± 0.14 h	10.3 ± 1.2 h	3.99 ± 0.17 h
MLQVYLVRHGETQWNAERRIQGQSDSPLTAKGEQQAMQVATRAKELGITHIISSDLGRTRRTAEIIAQACGCDIIFDSRLRELNMGVLEKRHIDSLTEEEENWRRQLVNGTVDGRIPEGESMQELSDRVNAALESCRDLPQGSRPLLVSHGIALGCLVSTILGLPAWAERRLRLRNCSISRVDYQESLWLASGWVVETAGDISHLDAPALDELQR [P0A7A2]	4.23 ± 1.4 h	2.36 ± 0.011 h	2.852 ± 0.012 h	2.65 ± 0.051 h	2.75 ± 0.28 h	4.55 ± 0.27 h	7.06 ± 0.16 h	2.71 ± 0.11 h	3.84 ± 0.45 h	4.88 ± 0.12 h	8.06 ± 1 h	2.57 ± 0.17 h
MGNRTKEDELYREMCRVVGKVVLEMRDLGQEPKHIVIAGVLRTALANKRIQRSELEKQAMETVINALVK [P0ACX5]		3.93 h			> 4 h	4.79 h			15.3 h	5.05 ± 1.9 h	12.6 ± 1.2 h	
MQKLKQQVFEANMELPRYGLVTFTWGNVSAIDRERGLVVIKPSGVAYETMKAADMVVVDMSGKVVEGEYRPSSDTATHLELYRRYPSLGGIVHTHSTHATAWAQAGLAIPALGTTHADYFFGDIPCTRGLSEEEVQGEYELNTGKVIIETLGNAEPLHTPGIVVYQHGPFAWGKDAHDAVHNAVVMEEVAKMAWIARGINPQLNHIDSFLMNKHFMRKHGPNAYYGQK	4.02 ± 1.1 h											
MSHLAELVASAKAAISQASDVAALDNVRVEYLGKKGHLTLQMTTLRELPPEERPAAGAVINEAKEQVQQALNARKAELESAALNARLAAETIDVSLPGRRIENGGLHPVTRTIDRIESFFGELGFTVATGPEIEDDYHNFDALNIPGHHPARADHDTFWFDTTRLLRTQTSGVQIRTMKAQQPPIRIIAPGRVYRNDYDQTHTPMFHQMEGLIVDTNISFTNLKGTLHDFLRNFFEEDLQIRFRPSYFPFTEPSAEVDVMGKNGKWLEVLGCGMVHPNVLRNVGIDPEVYSGFAFGMGMERLTMLRYGVTDLRSFFENDLRFLKQFK	5.84 ± 0.27 h	5.72 ± 0.43 h	6.07 ± 0.69 h	4.98 ± 0.13 h	3.49 ± 0.22 h	6.19 ± 0.32 h	12.5 ± 0.82 h	5.37 ± 0.42 h	9.85 ± 0.2 h	6.28 ± 0.36 h	12.91 ± 0.048 h	6.11 ± 0.96 h
MDALELLINRRSASRLAEPAPTGEQLQNILRAGMRAPDHKSMQPWHFFVIEGEGRERFSAVLEQGAIAAGSDDKAIDKARNAPFRAPLIITVVAKCEENHKVPRWEQEMSAGCAVMAMQMAAVAQGFGGIWRSGALTESPVVREAFGCREQDKIVGFLYLGTPQLKASTSINVPDPTPFVTYF [P0ACY1]	5.15 ± 0.18 h	4.55 ± 0.042 h	4.85 ± 0.25 h	4.85 ± 0.27 h	2.91 ± 0.03 h	5.49 ± 0.1 h	9.81 ± 4.2 h	4.7 ± 0.14 h	7.1 ± 0.14 h	5.6 ± 0.17 h	11.6 ± 1.3 h	5.29 ± 0.85 h
MKKLLRLFFPLSLRVRFLLATAAVVLVLSLAYGMVALIGYSVSFDKTTFRLLRGESNLFYTLAKWENNKLHVELPENIDKQSPTMTLIYDENGQLLWAQRDVPWLMKMIQPDWLKSNGFHEIEADVNDTSLLLSGDHSIQQQLQEVREDDDDAEMTHSVAVNVYPATSRMPKLTIVVVDTIPVELKSSYMVWSWFIYVLSANLLLVIPLLWVAAWWSLRPIEALAKEVRELEEHNRELLNPATTRELTSLVRNLNRLLKSERERYDKYRTTLTDLTHSLKTPLAVLQSTLRSLRSEKMSVSDAEPVMLEQISRISQQIGYYLHRASMRGGTLLSRELHPVAPLLDNLTSALNKVYQRKGVNISLDISPEISFVGEQNDFVEVMGNVLDNACKYCLEFVEISARQTDEHLYIVVEDDGPGIPLSKREVIFDRGQRVDTLRPGQGVGLAVAREITEQYEGKIVAGESMLGGARMEVIFGRQHSAPKDE	7.01 ± 1.1 h	5.85 ± 0.59 h	6.87 ± 1.1 h	6.02 ± 0.93 h	3.26 ± 0.4 h	5.936 ± 0.044 h	10.2 ± 1.2 h	6.046 ± 0.045 h	12.5 ± 0.13 h	6.36 ± 0.37 h	13.5 ± 1.9 h	6.22 ± 0.32 h
MDIISVALKRHSTKAFDASKKLTPEQAEQIKTLLQYSPSSTNSQPWHFIVASTEEGKARVAKSAAGNYVFNERKMLDASHVVVFCAKTAMDDVWLKLVVDQEDADGRFATPEAKAANDKGRKFFADMHRKDLHDDAEWMAKQVYLNVGNFLLGVAALGLDAVPIEGFDAAILDAEFGLKEKGYTSLVVVPVGHHSVEDFNATLPKSRLPQNITLTEV	2.56 ± 0.26 h	1.405 ± 0.01 h	2.01 ± 0.14 h	1.62 ± 0.067 h	2.72 ± 0.21 h	3.38 ± 0.86 h	5.94 ± 0.37 h	1.58 ± 0.097 h	2.17 ± 0.057 h	4.45 ± 0.91 h	7.04 ± 0.45 h	1.66 ± 0.42 h
MSVRNIFADESHDIYTVRTHADGPDGELPLTAEMLINRPSGDLFGMTMNAGMGWSPDELDRDGILLLSTLGGLRGADGKPVALALHQGHYELDIQMKAAAEVIKANHALPYAVYVSDPCDGRTQGTTGMFDSLPYRNDASMVMRRLIRSLPDAKAVIGVASCDKGLPATMMALAAQHNIATVLVPGGATLPAKDGEDNGKVQTIGARFANGELSLQDARRAGCKACASSGGGCQFLGTAGTSQVVAEGLGLAIPHSALAPSGEPVWREIARASARAALNLSQKGITTREILTDKAIENAMTVHAAFGGSTNLLLHIPAIAHQAGCHIPTVDDWIRINKRVPRLVSVLPNGPVYHPTVNAFMAGGVPEVMLHLRSLGLLHEDVMTVTGSTLKENLDWWEHSERRQRFKQLLLDQEQINADEVIMSPQQAKARGLTSTITFPVGNIAPEGSVIKSTAIDPSMIDEQGIYYHKGVAKVYLSEKSAIYDIKHDKIKAGDILVIIGVGPSGTGMEETYQVTSALKHLSYGKHVSLITDARFSGVSTGACIGHVGPEALAGGPIGKLRTGDLIEIKIDCRELHGEVNFLGTRSDEQLPSQEEATAILNARPSHQDLLPDPELPDDTRLWAMLQAVSGGTWTGCIYDVNKIGAALRDFMNKN	4.08 ± 0.67 h	3.82 ± 0.38 h	4.55 ± 0.14 h	3.33 ± 0.14 h		5.0317 ± 0.00062 h	8.896 ± 0.017 h	3.48 ± 0.52 h	4.88 ± 1.1 h	5.43 ± 0.13 h	10.1 ± 0.58 h	3.14 h
